First the molecules themselves.
B1: Myc-B55α wild type [not stated] / Flag-pRB [not stated] (parent complex)
chain 1: MAGAGGGNDIQWCFSQVKGAVDDDVAEADIISTVEFNHSGELLATGDKGGRVVIFQQEQENKIQSHSRGEYNVYSTFQSHEPEFDYLKSLEIEEKINKIRWLPQKNAAQFLLSTNDKTIKLWKISERDKRPEGYNLKEEDGRYRDPTTVTTLRVPVFRPMDLMVEASPRRIFANAHTYHINSISINSDYETYLSADDLRINLWHLEITDRSFNIVDIKPANMEELTEVITAAEFHPNSCNTFVYSSSKGTIRLCDMRASALCDRHSKLFEEPEDPSNRSFFSEIISSISDVKFSHSGRYMMTRDYLSVKIWDLNMENRPVETYQVHEYLRSKLCSLYENDCIFDKFECCWNGSDSVVMTGSYNNFFRMFDRNTKRDITLEASRENNKPRTVLKPRKVCASGKRKKDEISVDSLDFNKKILHTAWHPKENIIAVATTNNLYIFQDKVN
chain 2: MPPKTPRKTAATAAAAAAEPPAPPPPPPPEEDPEQDSGPEDLPLVRLEFEETEEPDFTALCQKLKIPDHVRERAWLTWEKVSSVDGVLGGYIQKKKELWGICIFIAAVDLDEMSFTFTELQKNIEISVHKFFNLLKEIDTSTKVDNAMSRLLKKYDVLFALFSKLERTCELIYLTQPSSSISTEINSALVLKVSWITFLLAKGEVLQMEDDLVISFQLMLCVLDYFIKLSPPMLLKEPYKTAVIPINGSPRTPRRGQNRSARIAKQLENDTRIIEVLCKEHECNIDEVKNVYFKNFIPFMNSLGLVTSNGLPEVENLSKRYEEIYLKNKDLDARLFLDHDKTLQTDSIDSFETQRTPRKSNLDEEVNVIPPHTPVRTVMNTIQQLMMILNSASDQPSENLISYFNNCTVNPKESILKRVKDIGYIFKEKFAKAVGQGCVEIGSQRYKLGVRLYYRVMESMLKSEEERLSIQNFSKLLNDNIFHMSLLACALEVVMATYSRSTSQNLDSGTDLSFPWILNVLNLKAFDFYKVIESFIKAEGNLTREMIKHLERCEHRIMESLAWLSDSPLFDLIKQSKDREGPTDHLESACPLNLPLQNNHTAADMYLSPVRSPKKKGSTTRVNSTANAETQATSAFQTQKPLKSTSLSLFYKKVYRLAYLRLNTLCERLLSEHPELEHIIWTLFQHTLQNEYELMRDRHLDQIMMCSMYGICKVKNIDLKFKIIVTAYKDLPHAVQETFKRVLIKEEEYDSIIVFYNSVFMQRLKTNILQYASTRPPTLSPIPHIPRSPYKFPSSPLRIPGGNIYISPLKSPYKISEGLPTPTKMTPRSRILVSIGESFGTSEKFQKINQMVCNSDRVLKRSAEGSNPPKPLKKLRFDIEGSDEADGSKHLPGESKFQQKLAEMTSTRTRMQKQKMNDSMDTSNKEEK

In this test the parent is B1. Kind of test: co-immunoprecipitation (anti-Myc IP), western blot quantitation; 293T cells, co-transfected; read off a plot.
Take chain 1 S247A: the ratio to parent is approximately 1.5. The same measure for chain 1 S287A: approximately 1.5; for chain 1 K98A: approximately 0.65; for chain 1 N181A: approximately 1.1.

As for chain 1 F280A, the ratio to parent is approximately 0.5. The same measure for chain 1 V228A: approximately 0.85. Next, chain 1 D116A: approximately 0.35; chain 1 T436A: approximately 0.7; chain 1 L225A: approximately 0.2.

Values taken from paper PMC8575462, “PP2A/B55α substrate recruitment as defined by the retinoblastoma-related protein p107” (eLife, 2021).
